In publication doi:10.1101/751602 (bioRxiv, 2019):

Columns and labels:
[1] = target: AtBAM2 with the Ndel1 truncation (Arabidopsis thaliana) (UniProt O65258); test: small-angle X-ray scattering
[2] = target: the molecule itself; test: small-angle X-ray scattering

stoichiometry N [1] | Molecule | stoichiometry N [2]
4 | AtBAM2 with the Ndel1 truncation (from UniProt O65258 86-542) (domain or fragment) | –
– | Arabidopsis thaliana β-amylase2 (AtBAM2), wild type (enzyme, UniProt O65258 56-542, looked up) AESTEEDRVPIDDDDDSTDQLVDEEIVHFEERDFAGTACVPVYVMLPLGVIDMNSEVVEPEELLDQLRTLKSVNVDGVMVDCWWGIVESHTPQVYNWSGYKKLFQMIRELGLKIQVVMSFHECGGNVGDDVHIQIPEWVREIGQSNPDIYFTDSAGRRNTECLTWGIDKQRVLRGRTALEVYFDYMRSFRVEFDEFFEEKIIPEIEVGLGPCGELRYPSYPAQFGWKYPGIGEFQCYDKYLMNSLKEAAEVRGHSFWGRGPDNTETYNSTPHGTGFFRDGGDYDSYYGRFFLNWYSRVLIDHGDRVLAMANLAFEGTCIAAKLSGIHWWYKTASHAAELTAGFYNSSNRDGYGPIAAMFKKHDAALNFTCVELRTLDQHEDFPEALADPEGLVWQVLNAAWDASIPVASENALPCYDREGYNKILENAKPLTDPDGRHLSCFTYLRLNPTLMESQNFKEFERFLKRMHGEAVPDLGLAPGTQETNPE | 4
